The results in this text go back to patent publication US7732133B2, “Screening methods for biologically active ligands” (Chugai Seiyaku Kabushiki Kaisha, priority 2000, dated 2010).

The nature of data set [1]: Titer of human EPO and G-CSF prepared from recombinant CHO cells.
The target of data set [2] is T1, chimeric G-CSF receptor (human G-CSF receptor extracellular domain / mouse G-CSF receptor) in Ba/F3 cell line GFG (UniProt P40223+Q99062).
T1 construct: the extracellular domain (from the −23rd to the 604th amino acid residues); expressed in transfected cells; host or cells: mouse Ba/F3 cells, clone GFG#342 = GFG
T1 sequence (Q99062+P40223 with tags, fused parts or gaps): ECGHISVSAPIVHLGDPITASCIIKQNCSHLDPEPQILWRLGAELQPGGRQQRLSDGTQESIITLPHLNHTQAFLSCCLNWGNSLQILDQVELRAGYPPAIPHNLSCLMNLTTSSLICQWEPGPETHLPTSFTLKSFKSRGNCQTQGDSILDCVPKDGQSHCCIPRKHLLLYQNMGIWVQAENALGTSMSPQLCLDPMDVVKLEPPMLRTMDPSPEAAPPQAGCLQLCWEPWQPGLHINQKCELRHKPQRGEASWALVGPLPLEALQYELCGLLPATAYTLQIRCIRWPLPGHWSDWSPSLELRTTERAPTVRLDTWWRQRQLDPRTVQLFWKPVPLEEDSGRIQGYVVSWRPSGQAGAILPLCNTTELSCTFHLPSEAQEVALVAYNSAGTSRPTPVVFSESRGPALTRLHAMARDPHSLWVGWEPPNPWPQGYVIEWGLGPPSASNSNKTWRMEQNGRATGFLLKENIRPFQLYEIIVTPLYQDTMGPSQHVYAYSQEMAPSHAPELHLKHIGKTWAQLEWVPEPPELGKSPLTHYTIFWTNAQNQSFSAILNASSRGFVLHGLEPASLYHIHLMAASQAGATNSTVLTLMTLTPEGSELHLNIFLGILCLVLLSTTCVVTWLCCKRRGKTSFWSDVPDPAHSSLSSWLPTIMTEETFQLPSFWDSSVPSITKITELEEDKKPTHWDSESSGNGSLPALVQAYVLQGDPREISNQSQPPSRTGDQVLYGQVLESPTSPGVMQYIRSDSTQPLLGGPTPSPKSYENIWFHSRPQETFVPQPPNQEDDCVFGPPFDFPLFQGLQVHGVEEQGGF
Put plainly: Growth response of chimeric G-CSF receptor-expressing Ba/F3 cell line GFG (WST-8). Type of data set: cell-based. To be noted: 70 hours culture, WST-8 absorbance. The text has this: A chimeric receptor cDNA was constructed by linking cDNA fragments encoding the extracellular domain (from the −23rd to the 604th amino acid residues; Fukunaga, R. et al. (1990) Proc. Natl. Acad. Sci. USA 87, 8702-8706) of human G-CSF receptor, and the transmembrane and intracellular domains (from the 602nd to the 813th amino acid residues; Fukunaga, R. et al. (1990) Cell 61, 341-350) of mouse G-CSF receptor. The cDNA was inserted downstream of the HEF1α promoter of the mammalian expression vector pCOS-G to construct chimeric receptor-expression vector GG/pCOS-G. GG/pCOS-G was linearized with Pvu I (Takara Shuzo), extracted with phenol and chloroform, and purified by ethanol precipitation.
(§1) The linearized expression gene vector was introduced into mouse Ba/F3 cells using an electroporation apparatus (Gene Pulser: Bio Rad). […]
The cells were washed twice with Media A, and were suspended in Media A to give a cell density of 5×10^4 cells/mL. […] After the culture, 10 μl/well WST-8 reagent (Cell Count Reagent SF; Nacalai Tesque) was added, and pre-reaction absorbance at a measurement wavelength of 450 nm and a control wavelength of 655 nm was measured using microplate reader (Model 3550, Bio Rad). The plate was incubated for two hours in a CO2 incubator (CO2 concentration, 5%), and post-reaction absorbance was measured as above.

Data set [3] concerns mixed culture of cell lines GFG, EPG, TPG and parental Ba/F3. Kind of data set: Cytokine responses in mixed and individual cell cultures (Example 2). Format: cell-based, mouse. To be noted: mixed culture of four cell lines (each 4×10^3 cells/well), similar in individual cultures, 72 hours, WST-8; listed as hG-CSF. As for the experimental part: Mixed culture of the cell lines GFG, EPG, and TPG, which express human G-CSF, EPO, and TPO chimeric receptors, respectively, and their parental cell line Ba/F3 was conducted and their response to various cytokines was examined.
The cells were washed twice with RPMI1640 media containing 2% fetal bovine serum, and then were suspended in RPMI1640 containing 10% fetal bovine serum. The four cell lines were mixed by adjusting each of the cell lines to 4×10^4 cells/mL (16×10^4 cells/mL in total) for the mixed culture, and, for individual cultures, cells were prepared at 4×10^4 cells/mL. 100 μL each of the cells were independently seeded on a 96-well microtiter plate (flat bottom, Falcon). After adding 100 μL/well each of appropriately diluted cytokines, the cultures were cultured for 72 hours in a CO2 incubator (5% CO2 concentration). After the culture, 10 μL/well WST-8 reagent (Cell Count Reagent SF; Nacalai Tesque) was added, and pre-reaction absorbance at a measurement wavelength of 450 nm and a control wavelength of 655 nm was measured using a microplate reader (Model 3550, Bio Rad). The plate was incubated for two hours in a CO2 incubator (CO2 concentration, 5%), and post-reaction absorbance was measured as above. Data were graphed out taking the cytokine concentrations on the horizontal axis and the amount of changes in absorbance after 2-hour incubation on the vertical axis (FIGS. 18, 19, and 20).
A general note: Tetrazolium assays rely on reduction of a dye to a coloured formazan, in cell work by metabolically active cells.

The target in data set [4] is T2, chimeric Flt-3 receptor (human Flt-3 extracellular domain / mouse G-CSF receptor) in Ba/F3 cell line FLG (Homo sapiens, UniProt P36888).
T2 construct: from the 1st to the 541st amino acid residues; expressed in transfected cells; host or cells: mouse Ba/F3 cells, clone FLG#102 = FLG
Kind of data set: Growth response of chimeric Flt-3 receptor-expressing Ba/F3 cell line FLG (WST-8). Type of data set: cell-based. To be noted: 74 hours culture, WST-8 absorbance.
From the text: A chimeric receptor cDNA was constructed by linking cDNA fragments encoding the extracellular domain (from the 1st to the 541st amino acid residues; Small, D. et al. (1994) Proc. Natl. Acad. Sci. USA. 91, 459-463) of human Flt-3, and the transmembrane and intracellular domains (from the 602nd to the 813th amino acid residues; Fukunaga, R. et al. (1990) Cell 61, 341-350) of mouse G-CSF receptor. The cDNA was inserted downstream of the EF1α promoter of the mammalian expression vector pCOS2 to construct chimeric receptor-expression vector FLG/pCOS2. The FLG/pCOS2 was linearized with Hpa I (Takara Shuzo), extracted with phenol and chloroform, and purified by ethanol precipitation.
as §1
The cells were washed twice with Media A, and were suspended in Media A to give a cell density of 5×10^4 cells/mL. […] After the culture, 10 μl/well WST-8 reagent (Cell Count Reagent SF; Nacalai Tesque) was added, and pre-reaction absorbance at a measurement wavelength of 450 nm and a control wavelength of 655 nm was measured using microplate reader (Model 3550, Bio Rad). The plate was incubated for two hours in a CO2 incubator (CO2 concentration, 5%; humidity, 99.9%), and post-reaction absorbance was measured as above.

B1: granulocyte-colony stimulating factor (protein, UniProt P09919 31-207, looked up)
Granulocyte …: TPLGPASSLPQSFLLKCLEQVRKIQGDGAALQEKLVSECATYKLCHPEELVLLGHSLGIPWAPLSSCPSQALQLAGCLSQLHSGLFLYQGLLQALEGISPELGPTLDTLQLDVADFATTIWQQMEELGMAPALQPTQGAMPAFASAFQRRAGGVLVASHLQSFLEVSYRVLRHLAQP
notes: human G-CSF prepared from recombinant CHO cells
Regarding B1, the titer in data set [1] is given as 1.2×10^8 IU/mg. The “concentration at which an evident growth reaction was observed” value in data set [2] was at least 10 pg/mL. In data set [3], the “concentration where the response was observed to start” value came out at 2 pg/mL.

B2: human Flt-3 ligand: human Flt-3 ligand (Genzyme) (protein, UniProt P49771 27-235, looked up)
Fms-related tyrosine kinase 3 …: TQDCSFQHSPISSDFAVKIRELSDYLLQDYPVTVASNLQDEELCGGLWRLVLAQRWMERLKTVAGSKMQGLLERVNTEIHFVTKCAFQPPPSCLRFVQTNISRLLQETSEQLVALKPWITRQNFSRCLELQCQPDSSTLPPPWSPRPLEATAPTAPQPPLLLLLLLPVGLLLLAAAWCLHWQRTRRRTPRPGEQVPPVPSPQDLLLVEH
Consider B2, for which, in data set [4], the “concentration at which an evident growth reaction was observed” value is listed as at least 300 pg/mL.
